One test has as its target T1, DRB1*0401 (DR4w4) (Homo sapiens, UniProt P01903+P01911, A100K/A169T/F76Y/I96L/K127E/L162R/M171V/N62H/P40V/Q125Y/R42H/S133A/S149N/S66Y/V115G/V209L/W38E).
T1 construct: endogenous in cells; host or cells: Preiss
In words: HLA class II peptide binding assay. The settings on record: for DR4w4 binding data: Table XIXb; for DR4w4 binding information: unit not given.

Another test concerns the target T2, DRB1*0701 (DR7) (Homo sapiens, UniProt P01903+P01911, A100R/A102G/A103Q/D57E/D86V/E43K/F76Y/K127E/L162R/M171V/P40G/Q125H/Q99D/R33Q/R42Y/R54Q/S133A/S66F/T210M/V115G/Y107V/Y59L/Y89S).
T2 construct: endogenous in cells; host or cells: Pitout
As to the kind of experiment: biochemical. The format is binding.

The target of the next test is T3, DRB1*1201 (DR5w12) (Homo sapiens, UniProt P01903+P01911, A100R/A169T/D57E/D86V/F55L/H45Y/K41T/L162R/M171V/P40S/Q125H/Q178H/Q39Y/Q99D/R42G/S66L/T262R/V114A/V67L/W38E/Y59H/Y61H/Y89S).
T3 construct: endogenous in cells; host or cells: Herluf
As to the kind of experiment: HLA class II peptide binding assay. Particulars: for DR5w12 binding data: Table XIXb; for DR5w12 binding information: DR3a motif peptides, unit not given, exemplary 15-mer containing the core sequence.

Another test concerns the target T4, DRB5*0101 (DR2w2β2) (Homo sapiens, UniProt P01903+Q30154).
T4 construct: expressed in transfected cells; host or cells: L416.3 (fibroblasts) or GM3107
The format is binding.

For the next test, the target named is T5, DRB1*0405 (DR4w15) (Homo sapiens, UniProt P01903+P01911, A100R/A169T/D86S/F76Y/I96L/K127E/L162R/M171V/N62H/P40V/Q125Y/R42H/S133A/S149N/S66Y/V115G/V209L/W38E).
T5 construct: endogenous in cells; host or cells: KT3
As to the kind of experiment: HLA class II peptide binding assay. The settings on record: for DR4w15 binding data: Table XIXb; for DR4w15 binding information: unit not given.

In the next test the target is T6, DRB4*0101 (DRw53) (Homo sapiens, UniProt P01903+P13762, G164S).
T6 construct: expressed in transfected cells; host or cells: L257.6 (fibroblasts)
In words: HLA class II peptide binding assay (pH 5.0). The settings on record: for DRw53 binding data: Table XIXb; for DRw53 binding information: DR3a motif peptides, unit not given, exemplary 15-mer containing the core sequence.

Another test deals with T7, DRB1*0802 (DR8w2) (Homo sapiens, UniProt P01903+P01911, A100R/A103L/A169T/F76Y/H45Y/I96F/K41T/L162R/M171V/P40S/Q125H/Q178H/Q39Y/Q99D/R218S/R42G/S66Y/V115G/W38E).
T7 construct: endogenous in cells; host or cells: OLL
In words: biochemical. The class given is binding.

For another test, the target named is T8, DRB1*1101 (DR5w11) (Homo sapiens, UniProt P01903+P01911, A100R/A169T/A87E/I96F/K41T/L162R/M171V/P40S/Q125H/Q178H/Q39Y/Q99D/R42S/S66Y/T262R/V115G/W38E).
T8 construct: endogenous in cells; host or cells: Sweig
T8 sequence (P01903 26-254, other chains not shown): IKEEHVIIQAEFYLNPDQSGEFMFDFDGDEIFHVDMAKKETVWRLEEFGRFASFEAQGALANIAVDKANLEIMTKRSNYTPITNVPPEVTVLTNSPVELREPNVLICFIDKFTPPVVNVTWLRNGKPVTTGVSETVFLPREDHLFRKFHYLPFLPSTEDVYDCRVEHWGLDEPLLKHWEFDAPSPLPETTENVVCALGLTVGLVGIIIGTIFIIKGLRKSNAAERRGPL
In words: biochemical. The class given is binding.

The next test addresses T9, DRB1*0101 (DR1) (Homo sapiens, UniProt P01903+P01911, A100R/D57E/F55L/F60I/F76Y/I96L/L162R/M171V/P40L/Q125E/R42F/V115G/Y59C).
T9 construct: endogenous in cells; host or cells: LG2
As to the kind of experiment: HLA class II peptide binding assay. The settings on record: for DR1 binding data: Table XIXb, Malaria Super Motif Peptides With Binding Data; for DR1 binding information: unit not given.

The target in another test is T10, HLA-A*0301 (Homo sapiens, UniProt P04439).
T10 construct: endogenous in cells; host or cells: GM3107
As to the kind of experiment: HLA class I peptide binding assay. Particulars: Malaria A3 motif peptides, Table XVI; binding value to HLA-A*0301, unit not given.

The target of a further test is T11, DRB1*0301 (DR3) (Homo sapiens, UniProt P01903+P01911, A100K/A102G/A103R/A169T/F55Y/I96L/K41T/L162R/M171V/P40S/Q125H/Q178H/Q39Y/R42S/S66N/T106N/T262R/W38E/Y61H).
T11 construct: endogenous in cells; host or cells: MAT
In words: HLA class II peptide binding assay (pH 4.5). Particulars: unit not given.

The next test concerns the target T12, DRB1*1501 (DR2w2β1) (Homo sapiens, UniProt P01903+P01911).
T12 construct: expressed in transfected cells; host or cells: L466.1 (fibroblasts)
In words: HLA class II peptide binding assay. The settings on record: Malaria DR3b motif peptides; unit not given.

The target of another test is T13, DRB1*1302 (DR6w19) (Homo sapiens, UniProt P01903+P01911, A100E/A169T/K41T/L162R/M171V/P40S/Q125H/Q178H/Q39Y/Q99D/R42S/S66N/T262R/V115G/W38E/Y61H).
T13 construct: endogenous in cells; host or cells: H0301
T13 sequence (P01903 26-254, other chains not shown): as above
As to the kind of experiment: HLA class II peptide binding assay. The settings on record: Malaria DR3b motif peptides; unit not given.

Where [1] appears, read: DR3a motif peptides, exemplary 15-mer containing the core sequence.

Results on seven sequences are retold here after patent US20160193316A1 (priority 1994, published 2016).

T1 sequence (P01903 26-254 partner, other chains not shown): as the sequence (P01903 26-254, other chains not shown) above
T9 sequence (P01903 26-254 partner, other chains not shown): as the sequence (P01903 26-254, other chains not shown) above

In turn, IAGGLALLA came in with a DR4w4 binding data with DRB1*0401 (DR4w4) of 0.0014. In the test with DRB1*0701 (DR7), this sequence displayed a DR7 binding data of -0.0003. Also, the DR5w12 binding data with DRB1*1201 (DR5w12) was found to be 0.0007. Besides, in the test with DRB5*0101 (DR2w2β2), the DR2w2β2 binding data turned out to be 0.0013. This sequence had a DR4w15 binding data with DRB1*0405 (DR4w15) of 0.0014. Also, in the test with DRB4*0101 (DRw53), the DRw53 binding data was -0.0005. The sequence further returned a DR8w2 binding data with DRB1*0802 (DR8w2) of 0.0004. This sequence also gave a DR5w11 binding data with DRB1*1101 (DR5w11) of -0.0002. This sequence gave a DR1 binding data with DRB1*0101 (DR1) of 0.0160. The “A*0301 (binding information)” value in the test with HLA-A*0301 amounted to 0.0002.
Take IKNSEKDEI: the DR4w4 binding information in the test with DRB1*0401 (DR4w4) (Malaria DR3b motif peptides) was 0.0030. In the test with DRB1*0701 (DR7), this sequence returned a DR7 binding information of -0.0011. Besides, the DR2w2β2 binding information with DRB5*0101 (DR2w2β2) is listed as -0.0160. This sequence also registered a DR3 binding information in the test with DRB1*0301 (DR3) (Malaria DR3b motif peptides) of -0.0017. The DR4w15 binding information with DRB1*0405 (DR4w15) (Malaria DR3b motif peptides) is recorded as -0.0010. In addition, the DR2w2β1 binding information with DRB1*1501 (DR2w2β1) is recorded as -0.0021. The same sequence displayed a DR8w2 binding information with DRB1*0802 (DR8w2) of -0.0007. The sequence also displayed a DR5w11 binding information with DRB1*1101 (DR5w11) of -0.0003. In the test with DRB1*0101 (DR1) (Malaria DR3b motif peptides), the DR1 binding information was 0.0002.
For INRENANQL, the DR4w4 binding information with DRB1*0401 (DR4w4) (setting [1]) stood at 0.0011. In addition, the DR7 binding information with DRB1*0701 (DR7) is listed as -0.0003. The same sequence gave a DR5w12 binding information in the test with DRB1*1201 (DR5w12) of 0.0001. In addition, the DR2w2β2 binding information in the test with DRB5*0101 (DR2w2β2) was determined as 0.0015. Besides, the DR3 binding information with DRB1*0301 (DR3) (setting [1]) is 0.0092. Further, the DR4w15 binding information in the test with DRB1*0405 (DR4w15) (setting [1]) worked out at 0.0010. In addition, the DRw53 binding information with DRB4*0101 (DRw53) was 0.0096. The same sequence registered a DR8w2 binding information with DRB1*0802 (DR8w2) of -0.0003. The same sequence displayed a DR5w11 binding information in the test with DRB1*1101 (DR5w11) of -0.0004. In the test with DRB1*0101 (DR1) (setting [1]), this sequence showed a DR1 binding information of 0.0770.
Regarding IQDSLKESR, the DR7 binding information with DRB1*0701 (DR7) is reported as -0.0014. This sequence returned a DR2w2β2 binding information in the test with DRB5*0101 (DR2w2β2) of -0.0018. The sequence also showed a DR6w19 binding information with DRB1*1302 (DR6w19) of -0.0002. For the same sequence, the DR3 binding information with DRB1*0301 (DR3) (Malaria DR3b motif peptides) amounted to 0.8400. The DR2w2β1 binding information with DRB1*1501 (DR2w2β1) is on record as 0.0040. In the test with DRB1*0802 (DR8w2), this sequence had a DR8w2 binding information of 0.0012. Also, in the test with DRB1*1101 (DR5w11), the DR5w11 binding information is on record as -0.0006. This sequence showed a DR1 binding information with DRB1*0101 (DR1) (Malaria DR3b motif peptides) of -0.0001.
IVDELSEDI showed a DR4w4 binding information with DRB1*0401 (DR4w4) (setting [1]) of 0.0027. The sequence also registered a DR7 binding information in the test with DRB1*0701 (DR7) of -0.0003. For the same sequence, the DR5w12 binding information in the test with DRB1*1201 (DR5w12) worked out at 0.0001. Further, in the test with DRB5*0101 (DR2w2β2), the DR2w2β2 binding information is given as -0.0005. The DR3 binding information with DRB1*0301 (DR3) (setting [1]) is -0.0041. The sequence also came in with a DR4w15 binding information with DRB1*0405 (DR4w15) (setting [1]) of 0.0017. This sequence also had a DRw53 binding information in the test with DRB4*0101 (DRw53) of 0.0290. In the test with DRB1*0802 (DR8w2), the DR8w2 binding information is reported as -0.0003. The sequence also displayed a DR5w11 binding information with DRB1*1101 (DR5w11) of -0.0002. For the same sequence, the DR1 binding information in the test with DRB1*0101 (DR1) (setting [1]) came out at 0.0001.
The sequence LAMKLIQQL registered a DR4w4 binding data with DRB1*0401 (DR4w4) of 0.0023. This sequence yielded a DR7 binding data with DRB1*0701 (DR7) of 0.0770. In addition, in the test with DRB1*1201 (DR5w12), the DR5w12 binding data is reported as 0.1300. The sequence further yielded a DR2w2β2 binding data with DRB5*0101 (DR2w2β2) of -0.0006. Moreover, the DR4w15 binding data with DRB1*0405 (DR4w15) came out at 0.0013. The DRw53 binding data with DRB4*0101 (DRw53) is 0.0350. This sequence also displayed a DR8w2 binding data in the test with DRB1*0802 (DR8w2) of 0.0400. This sequence also registered a DR5w11 binding data with DRB1*1101 (DR5w11) of 0.0002. In the test with DRB1*0101 (DR1), this sequence showed a DR1 binding data of 0.0015.
In the case of LTDGIPDSI, the DR4w4 binding data with DRB1*0401 (DR4w4) came out at 0.1200. In the test with DRB1*0701 (DR7), this sequence returned a DR7 binding data of -0.0003. In the test with DRB1*1201 (DR5w12), this sequence registered a DR5w12 binding data of 0.0001. The same sequence displayed a DR2w2β2 binding data in the test with DRB5*0101 (DR2w2β2) of -0.0006. The DR4w15 binding data with DRB1*0405 (DR4w15) was -0.0014. For the same sequence, the DRw53 binding data in the test with DRB4*0101 (DRw53) was 0.0114. The same sequence showed a DR8w2 binding data with DRB1*0802 (DR8w2) of -0.0003. Besides, the DR5w11 binding data with DRB1*1101 (DR5w11) was -0.0004. Further, the DR1 binding data with DRB1*0101 (DR1) was 0.0001.
